Experiments:
Experiment in all cases: IEDB peptide-MHC binding, purified MHC/competitive/radioactivity; filed as Kd, often an IC50 or EC50 that approximates it; ≥ and ≤ were set here for values at or beyond the usual limits of such assays
HLA-A*31:01 = target: HLA-A*31:01
HLA-A*11:01 = target: HLA-A*11:01
HLA-A*68:01 = target: HLA-A*68:01
HLA-A*33:01 = target: HLA-A*33:01
HLA-A*03:01 = target: HLA-A*03:01
[1] = source organism: SARS coronavirus Tor2
[2] = source organism: Vaccinia virus WR
[3] = source organism: Dengue virus 2 Jamaica/1409/1983
[4] = source organism: Dengue virus 1 Brazil/97-11/1997
[5] = source organism: Mammarenavirus guanaritoense
[6] = source organism: Mammarenavirus brazilense
[7] = source organism: Dengue virus 4 Philippines/H241/1956
[8] = source organism: Dengue virus 3 Martinique/1243/1999
[9] = source organism: Lymphocytic choriomeningitis virus (strain Armstrong)

Sequence | Kd (HLA-A*31:01; [2]) [nM] | Kd (HLA-A*11:01; [2]) [nM] | Kd (HLA-A*68:01; [2]) [nM] | Kd (HLA-A*33:01; [2]) [nM] | Kd (HLA-A*03:01; [2]) [nM] | other results
AFHTPAFDK |  |  |  |  |  | Kd (HLA-A*31:01; [1]): 5640 nM; Kd (HLA-A*11:01; [1]): 957 nM; Kd (HLA-A*68:01; [1]): 8590 nM; Kd (HLA-A*33:01; [1]): ≥ 33200 nM; Kd (HLA-A*03:01; [1]): 1430 nM
AFLLRHYYNK | 23.8 | 225 | 5340 | 1910 | 749 | 
ALNDTWKMEK |  |  |  |  |  | Kd (HLA-A*11:01; [3]): 392 nM; Kd (HLA-A*03:01; [3]): 82.4 nM
ATCVYNMMGK |  |  |  |  |  | Kd (HLA-A*11:01; [4]): 20.1 nM; Kd (HLA-A*03:01; [4]): 1.91 nM
CAVHLIIYY | 4950 | 788 | 24.5 | ≥ 21100 | 10100 | 
CCNWLDRCR |  |  |  |  |  | Kd (HLA-A*31:01; [5]): 13500 nM; Kd (HLA-A*11:01; [5]): 18100 nM; Kd (HLA-A*68:01; [5]): ≥ 77600 nM; Kd (HLA-A*33:01; [5]): ≥ 56800 nM; Kd (HLA-A*03:01; [5]): ≥ 78000 nM
CSSLTEEFYH |  |  |  |  |  | Kd (HLA-A*31:01; [6]): 3360 nM; Kd (HLA-A*11:01; [6]): 8680 nM; Kd (HLA-A*68:01; [6]): ≥ 31900 nM
DIEIGNFYIR | 822 | 10400 | 49 | 129 | 845 | 
DQDALFAYTK |  |  |  |  |  | Kd (HLA-A*31:01; [1]): 3720 nM; Kd (HLA-A*11:01; [1]): 2600 nM; Kd (HLA-A*68:01; [1]): 1270 nM; Kd (HLA-A*33:01; [1]): 9570 nM; Kd (HLA-A*03:01; [1]): 4250 nM
DSMDVLAEK | 988 | 1.73 | 0.122 | 1.81 | 404 | 
DTSEKYSKGY | ≥ 70000 | 886 | 533 | ≥ 70000 | ≥ 70100 | 
DTTPFGQQR |  |  |  |  |  | Kd (HLA-A*68:01; [7]): 91 nM; Kd (HLA-A*33:01; [7]): 94.5 nM
EFGRAKGSR |  |  |  |  |  | Kd (HLA-A*33:01; [7]): 38.1 nM
ELRRAAIDR | 18100 | ≥ 77900 | 83.2 | 1090 | ≥ 78000 | 
ELTLDCEPR |  |  |  |  |  | Kd (HLA-A*68:01; [7]): 229 nM; Kd (HLA-A*33:01; [7]): 32 nM
EQLSKYVEK | 506 | 9.75 | 161 | 832 | 149 | 
ESIEDKFDY | ≥ 34500 | 11300 | 1720 | ≥ 77700 | 7530 | 
ESRPFDLIK | 17900 | 1320 | 22.1 | 3400 | 8370 | 
ETFKIDAVRY | ≥ 41300 | ≥ 25100 | 46.9 | ≥ 70000 | ≥ 70100 | 
ETSPGEIKPK | ≥ 70000 | 1520 | 47.5 | ≥ 61900 | ≥ 35000 | 

Sequence | Kd (HLA-A*31:01; [2]) [nM] | Kd (HLA-A*11:01; [2]) [nM] | Kd (HLA-A*68:01; [2]) [nM] | Kd (HLA-A*33:01; [2]) [nM] | Kd (HLA-A*03:01; [2]) [nM] | other results
FFTASLFLH |  |  |  |  |  | Kd (HLA-A*11:01; source organism: Mammarenavirus juninense): 247 nM
FFTTSLFLH |  |  |  |  |  | Kd (HLA-A*31:01; [5]): 1190 nM; Kd (HLA-A*11:01; [5]): ≥ 77900 nM; Kd (HLA-A*68:01; [5]): ≥ 24800 nM; Kd (HLA-A*33:01; [5]): ≥ 77700 nM; Kd (HLA-A*03:01; [5]): ≥ 55700 nM
FLEFSNRVY | 1330 | 3210 | 10100 | 8430 | 43.5 | 
FLKDDTLSK | ≥ 77900 | ≥ 10000 | 638 | ≥ 30700 | 347 | 
FLKEQHCQK |  |  |  |  |  | Kd (HLA-A*31:01; [1]): 802 nM; Kd (HLA-A*11:01; [1]): 15400 nM; Kd (HLA-A*68:01; [1]): 1320 nM; Kd (HLA-A*33:01; [1]): 643 nM; Kd (HLA-A*03:01; [1]): 193 nM
FLLNKEMYLK |  |  |  |  |  | Kd (HLA-A*31:01; [1]): 2080 nM; Kd (HLA-A*11:01; [1]): 153 nM; Kd (HLA-A*68:01; [1]): 986 nM; Kd (HLA-A*33:01; [1]): 2510 nM; Kd (HLA-A*03:01; [1]): 59.5 nM
FVFPLNSKVK |  |  |  |  |  | Kd (HLA-A*31:01; [1]): 12800 nM; Kd (HLA-A*11:01; [1]): 113 nM; Kd (HLA-A*68:01; [1]): 8.76 nM; Kd (HLA-A*33:01; [1]): 16700 nM; Kd (HLA-A*03:01; [1]): 164 nM
GAMLFLISGK |  |  |  |  |  | Kd (HLA-A*11:01; [8]): 42.6 nM; Kd (HLA-A*03:01; [8]): 3.85 nM
GTSIFAGHLK |  |  |  |  |  | Kd (HLA-A*11:01; [8]): 23.5 nM; Kd (HLA-A*68:01; [8]): 114 nM; Kd (HLA-A*03:01; [8]): 3.86 nM
GVVREFLTR |  |  |  |  |  | Kd (HLA-A*31:01; [1]): 899 nM; Kd (HLA-A*11:01; [1]): 522 nM; Kd (HLA-A*68:01; [1]): 186 nM; Kd (HLA-A*33:01; [1]): 13200 nM; Kd (HLA-A*03:01; [1]): 19000 nM
HINTLIQYR | 6.05 | 197 | 14.8 | 16.5 | 191 | 
HMIVSKQER |  |  |  |  |  | Kd (HLA-A*31:01; [4]): ≥ 77900 nM; Kd (HLA-A*33:01; [4]): 8610 nM
IILAALFMYY | ≥ 70000 | 740 | 1480 | ≥ 70000 | 679 | 
IITSTKTIEY | 6630 | 917 | 5720 | 14100 | 82.2 | 
ILKRWGQLKK |  |  |  |  |  | Kd (HLA-A*03:01; [7]): 38.5 nM
IMASLVLAR |  |  |  |  |  | Kd (HLA-A*31:01; [1]): 18 nM; Kd (HLA-A*11:01; [1]): 104 nM; Kd (HLA-A*68:01; [1]): 28.4 nM; Kd (HLA-A*33:01; [1]): 560 nM; Kd (HLA-A*03:01; [1]): 10.6 nM
IMFMLIFNVK | 663 | 200 | 136 | 1220 | 157 | 
ISDYSAEVER | 1730 | 3840 | 229 | 1360 | ≥ 23400 | 
IVTCAMFTCK |  |  |  |  |  | Kd (HLA-A*11:01; [3]): 352 nM; Kd (HLA-A*03:01; [3]): 362 nM
IVTMFEALPH |  |  |  |  |  | Kd (HLA-A*31:01; [9]): ≥ 70000 nM; Kd (HLA-A*68:01; [9]): 5840 nM; Kd (HLA-A*33:01; [9]): 75.1 nM

Source: the Immune Epitope Database (IEDB)
